What all share (details): both partners purified
Assay [1] addresses T1, SFTSV Gn head (positions 19-337), C3 genotype (SDTA1/China) (SFTSV (Dabie bandavirus), strain SDTA1, …, UniProt A0A1S6K8S9, strain).
T1 construct: source: HEK293F cells (Sino Biological), purified (HisTrap, size exclusion)
The experiment in a line: SPR.

For assay [2], the target named is T2, SFTSV Gn head (positions 19-337), C2 genotype (P24-Vero_2021/China) (SFTSV (Dabie bandavirus), strain …, strain).
T2 construct: source: HEK293F cells (Sino Biological), purified (HisTrap, size exclusion)
The experiment in a line: SPR. A general note: In SPR one partner is held on a chip, and binding of the other changes the refractive index at the surface.

For assay [3], the target named is T3, SFTSV Gn head (positions 19-337), J1 genotype (KU18-5/Japan) (SFTSV (Dabie bandavirus), strain …, strain).
T3 construct: source: HEK293F cells (Sino Biological), purified (HisTrap, size exclusion)
The experiment in a line: SPR.

Assay [4] addresses SFTSV Gn glycoprotein (G19-K452, C3 genotype) (SFTSV (Dabie bandavirus), strain SDTA1, …, UniProt A0A1S6K8S9, strain). The experiment in a line: BLI. Background: In BLI a coated tip is dipped into the sample, and binding shifts an interference pattern.
Assay [5] concerns the target T4, SFTSV Gn head (as crystallised with the Fabs) (SFTSV (Dabie bandavirus), strain SDTA1, …).
T4 construct: also called Gn protein
The experiment in a line: crystal structure.

Residue numbers refer to the chain shown, from its start.

B1: SD4 monoclonal antibody (human IgG1) (antibody, V domains shown)
VH: QVQLVESGGGVVQPGRSLRLSCAASGFPFSGYGMHWVRQAPGKGLEWVAVISYDGSEKNYADSVKGRFTISRDNSKNTLYLQMNSLRVEDTAVYYCAKDRDYYGSGFYDYWGQGTLVTVSS
VL: DIQMTQSPSSLSASVGDRVTITCQASQHISNHLNWYQQKPGTAPTLLIYEASNLETGVPSRFSGSGSGTDFSFTISSLRPEDFATYYCQQYDNFPLTFGPGTTMDIK
notes: also called mAb SD4
With B1, the Kd in assay [1] came to 0.0827 nM; in assay [2], 0.0321 nM; in assay [3], 0.0628 nM; in assay [4], 0.096 nM.

B2: SD4 Fab (Fab, V domains shown)
VH: B1 VH
VL: B1 VL
notes: source: purified
Turning to B2, the binding result in assay [5] is listed as “binds”.

B3: SD4-X monoclonal antibody (human IgG1) (antibody, V domains shown)
VH: B1 VH with P28T, G31S, E57N, N59Y, V88A, Y108F
VL: DIQMTQSPSSLSASVGDRVTITCQASQDISNHLNWYQEKPGKVPKLLIYEASNVETGVPSRFSGSGSGTDFTFTISSLQPEDIATYYCQQYDNLPYTFGQGTKLEIK
Turning to B3, the binding result in assay [4] was “binds”.

B4: SD4-S monoclonal antibody (human IgG1) (antibody, V domains shown)
VH: B1 VH with V12L, P28T, A61G, M83I, V88T, T91R, Y103F, Y108F
VL: DIQMTQSPSSLSASVGDRVTITCQASQDITKYLNWYQQKPGKAPKLLIFEASNLETGVPSRFSGSGSGTDFTFTISSLQPEDFATYYCQQYGDFPLTFGGGTKVEIK
For B4, in assay [4], the binding result is on record as “binds”.

B5: SD22 monoclonal antibody (human IgG1) (antibody, V domains shown)
VH: QVQLVESGGGVVQPGRSLRLSCAASGFTFSGFGMHWVRQAPGKGLEWVALISYDGSDTYYSDSVKGRFTISRDNSKNTLYLQLKSLRPDDTAVYYCVGDRDYFGSGFFDHWGQGTLVTVSS
VL: DIQMTQSPSSLSASIGDRVTITCRASRHITNHLNWYQHKPGRAPKLLIYEASNLQAGVPSRFSGSGSGTDFTFTISSLQPEDFATYYCQQYDNLPPAFGGGTKVDIK
notes: IgG1; germline IGHV3-30; also called mAb SD22
Turning to B5, the dissociation constant Kd in assay [1] was 0.0542 nM; in assay [2] it was 0.0515 nM; in assay [3], 0.0557 nM.

B6: SD22 Fab (Fab, V domains shown)
VH: B5 VH
VL: B5 VL
notes: source: purified
Take B6: in assay [5], the binding result was “binds”.

B7: SD12 monoclonal antibody (human IgG1) (antibody, V domains shown)
VH: EVQLLESGGGLVQPGGSLRLSCAASGFIFSSYAMSWVRQAPGKGLEWVSAISGSGGSTYYADSVKGRFTISRDNSKNTLYLQMNSLRDEDTAVYYCAKDRSYVSSGFFDDWGQGTLVTVSS
VL: B3 VL with H32Y, E38Q, K39R, V43A, Y49F, V54L, D92E, P95L
notes: IgG1; also called mAb SD12
Turning to B7, the figures for the Kd in assay [1], in assay [2] and in assay [3] were 87.8 nM, 74.1 nM and 60.2 nM, respectively.

B8: SD12 Fab (Fab, V domains shown)
VH: B7 VH
VL: B3 VL with H32Y, E38Q, K39R, V43A, Y49F, V54L, D92E, P95L
notes: source: purified
Consider B8, for which the binding result in assay [5] is “binds”.

One may read the Kd as the free concentration of one partner at which half of the binding sites on the other are occupied at equilibrium, for simple one-to-one binding. A low value points to higher affinity.

(Values after article PMC12282080, “Molecular mechanism of potently neutralizing human monoclonal antibodies against severe fever with thrombocytopenia virus infection” (Journal of Virology, 2025).)
